From the RNAGym collection of RNA variant scans (doi:10.7554/elife.80360) come the findings set out here.

First the molecules themselves.
B1: HDV Ribozyme (parent)
chain: GGCCGGCAUGGUCCCAGCCUCCUCGCUGGCGCCGGCUGGGCAACAUUCCGAGGGGACCGUCCCCUCGGUAAUGGCGAAUGGGACCCA

The data set covers variants of B1. Kind of data set: self-cleavage, relative activity (ratio to wild type); higher = more cleavage; co-transcriptional.
For C61A A78C, the self-cleavage stood at 0.145.

In the case of G10A C21U, the self-cleavage amounted to 0.0453.

U9C C18A: the self-cleavage is 0.128.

For the variant A51G G67C, the self-cleavage turned out to be 0.864.

On to C44A U79C, for which the self-cleavage was 0.122.

G39U A77U: the self-cleavage is 0.102.

As for U47G G80U, the self-cleavage was 0.163.

Consider G25U C58A, for which the self-cleavage was 0.244.

With U12A G40A, the self-cleavage was 0.374.

Turning to A42G G52A, the self-cleavage stood at 0.483.

Take G59A G68U: the self-cleavage is 0.92.

As to G2A A56G, the self-cleavage came to 0.242.

As to G2A G31A, the self-cleavage worked out at 0.0729.

As to C15U G74C, the self-cleavage was found to be 0.185.

In the case of G31C G40C, the self-cleavage came out at 0.0346.

As to U27A C84A, the self-cleavage was 0.831.

Regarding G74C A87C, the self-cleavage was found to be 0.212.

For the variant C15A C30A, the self-cleavage came to 0.326.

Take C15U G25U: the self-cleavage was determined as 0.0875.

For U12A C85A, the self-cleavage came out at 0.383.

As for G6A G68U, the self-cleavage came out at 0.691.

Regarding U12C U27A, the self-cleavage came to 0.506.

With A16G C66G, the self-cleavage worked out at 0.743.

For the variant U20G U27G, the self-cleavage amounted to 0.332.

G50U C64A: the self-cleavage was determined as 0.468.

In the case of G1U U72C, the self-cleavage worked out at 0.237.

In the case of A51G A87U, the self-cleavage was 0.952.

For the variant C7U U37A, the self-cleavage was determined as 0.0739.

Take G5U A51U: the self-cleavage came to 0.688.

For the variant C26G G73C, the self-cleavage turned out to be 0.492.

As to C49G C85U, the self-cleavage is 0.912.

Turning to C32G G76U, the self-cleavage worked out at 0.122.

Turning to C21U G39A, the self-cleavage is 0.993.

For the variant C62G C84G, the self-cleavage was 0.482.

With G10U G35A, the self-cleavage turned out to be 0.604.

In the case of G52C G74C, the self-cleavage was determined as 0.17.

In the case of C62G C85G, the self-cleavage was found to be 0.911.

For U60A A77C, the self-cleavage was found to be 0.305.

For A51C C62U, the self-cleavage worked out at 1.08.

U47G C84U: the self-cleavage turned out to be 0.346.

Regarding G6A C66G, the self-cleavage was found to be 0.456.

Take G31C C58U: the self-cleavage was 0.339.

Take G17C G34U: the self-cleavage came to 0.0415.

With U9C C62G, the self-cleavage is 0.166.

Turning to G31U C63A, the self-cleavage was found to be 0.468.

As to C26U G39U, the self-cleavage is 0.936.

As for G1U A56U, the self-cleavage stood at 0.394.

As for U20G G40A, the self-cleavage came out at 0.374.

Consider C36A C75G, for which the self-cleavage worked out at 0.154.

G10U U37G: the self-cleavage turned out to be 0.0978.

Turning to G52U A78U, the self-cleavage worked out at 0.378.

For G28U C41U, the self-cleavage came to 0.0779.

Turning to C30G G81U, the self-cleavage was 0.158.

For C18U C22A, the self-cleavage is 0.27.

C49U A71U: the self-cleavage is 0.875.

For G10C A83C, the self-cleavage came out at 0.0615.

Turning to G6A C64U, the self-cleavage is 0.739.

With A51G G54C, the self-cleavage came to 1.37.

Turning to U9C G50C, the self-cleavage worked out at 0.886.

For G11A G28A, the self-cleavage turned out to be 0.0268.

For the variant U20A G80C, the self-cleavage is 0.0992.

With U20G G28C, the self-cleavage came to 0.

As to A16G G80A, the self-cleavage is 0.243.

Consider U27A C86G, for which the self-cleavage is 0.918.

On to G82C A83U, for which the self-cleavage worked out at 0.237.

With U20A C41U, the self-cleavage was 0.

Consider C19U C49A, for which the self-cleavage was found to be 0.0378.

For the variant G50U A71G, the self-cleavage came out at 0.78.

G34C C49G: the self-cleavage amounted to 0.264.

For A42G A71U, the self-cleavage was determined as 0.502.

As for G35C C85U, the self-cleavage was determined as 0.308.

For U27C C63G, the self-cleavage was determined as 0.639.

Regarding C44U G50A, the self-cleavage was 0.855.

For the variant C32U A77G, the self-cleavage turned out to be 0.73.

For the variant C3G G52A, the self-cleavage turned out to be 0.702.

With C7G G17A, the self-cleavage amounted to 0.

As to G17C A43U, the self-cleavage was found to be 0.115.

Take G31A U37C: the self-cleavage is 0.366.

With C21G A83U, the self-cleavage was 0.0875.

On to G50A A51U, for which the self-cleavage amounted to 0.763.

On to C4G C19G, for which the self-cleavage turned out to be 0.086.

As to G17A A51U, the self-cleavage is 0.884.

Regarding C49U G53A, the self-cleavage is 0.916.

With G2A A87G, the self-cleavage was found to be 0.145.

Regarding C4U C61A, the self-cleavage was determined as 0.978.

For C13U C58G, the self-cleavage worked out at 0.554.

On to C57G G81A, for which the self-cleavage came out at 0.509.

As for C57G A77G, the self-cleavage is 1.05.

As for G25U C26A, the self-cleavage was 0.217.

For C36A C63U, the self-cleavage amounted to 0.177.

For C64U A70C, the self-cleavage was 0.956.

Turning to G31C A45G, the self-cleavage worked out at 0.293.

Consider C3G C36U, for which the self-cleavage was 0.155.

On to G5A U37G, for which the self-cleavage stood at 0.0504.

For U12G C13U, the self-cleavage amounted to 0.931.

As to G40U A45G, the self-cleavage was found to be 0.688.

With U46C G55A, the self-cleavage amounted to 0.878.

Consider A42C A87C, for which the self-cleavage worked out at 0.367.

Take U65A A71G: the self-cleavage turned out to be 0.831.

For the variant G1C A77G, the self-cleavage turned out to be 0.

Regarding C48A C58A, the self-cleavage worked out at 0.831.

U20A G39U: the self-cleavage worked out at 0.0852.

In the case of G6A C75G, the self-cleavage was 0.0369.

C61A G74U: the self-cleavage stood at 0.63.

Take A56C C75G: the self-cleavage came to 0.115.

For G50A C58A, the self-cleavage was 1.12.

In the case of C44G C86A, the self-cleavage was found to be 0.767.

Take G10C A87U: the self-cleavage stood at 0.984.

Turning to U23G G67A, the self-cleavage is 0.628.

Turning to A8C C64A, the self-cleavage is 0.639.

As to G39A G52A, the self-cleavage is 0.405.

Take C22U C61A: the self-cleavage worked out at 0.641.

C13A U46A: the self-cleavage was determined as 0.0346.

For U12A A16U, the self-cleavage amounted to 0.32.

Take C33A G53U: the self-cleavage was determined as 0.277.

With A45G G73C, the self-cleavage was 0.388.

With G2A A43U, the self-cleavage amounted to 0.0203.

Take U12A C48U: the self-cleavage amounted to 0.277.

Regarding C13G U47A, the self-cleavage was determined as 0.

For the variant C7U U20A, the self-cleavage was determined as 0.0594.

On to C61U A83G, for which the self-cleavage came out at 0.692.

In the case of G17U U23C, the self-cleavage is 0.219.

C14A C21A: the self-cleavage worked out at 0.0652.

C44G C66A: the self-cleavage stood at 0.692.

For A42C U60C, the self-cleavage was 0.35.

As to C4U A43U, the self-cleavage is 0.332.

On to C24G A78C, for which the self-cleavage amounted to 0.0241.

Consider G39C G73A, for which the self-cleavage stood at 0.0339.

As to C15U G17C, the self-cleavage worked out at 0.0978.

Consider A71C C84U, for which the self-cleavage was found to be 0.604.

Turning to U20C G81C, the self-cleavage stood at 0.

With U20C G81A, the self-cleavage amounted to 0.

On to G40A G55U, for which the self-cleavage came out at 1.17.

Regarding C57U U79A, the self-cleavage was found to be 0.752.

Regarding U9A C57A, the self-cleavage is 1.02.

As to C3A G10U, the self-cleavage worked out at 0.23.

Take G6C U23G: the self-cleavage was determined as 0.

In the case of G31U G54C, the self-cleavage was determined as 0.197.

Turning to U37G C41U, the self-cleavage stood at 0.156.

G2A G34U: the self-cleavage stood at 0.0449.

On to C3A C86G, for which the self-cleavage worked out at 0.745.

On to G2C C41G, for which the self-cleavage amounted to 0.103.

For the variant G55U C84G, the self-cleavage was 0.546.

A42G C63G: the self-cleavage turned out to be 0.504.

With G10C C15G, the self-cleavage is 0.0723.

Consider C4G A87C, for which the self-cleavage was 0.373.

Consider G5A C33A, for which the self-cleavage turned out to be 0.219.

C24G U37A: the self-cleavage turned out to be 0.0674.

With G38U C41U, the self-cleavage was determined as 0.623.

As for C41U C66U, the self-cleavage was 1.

G2A G39U: the self-cleavage worked out at 0.0305.

Take G1A C61A: the self-cleavage was 0.145.

Consider G25A G74C, for which the self-cleavage worked out at 0.163.

Regarding C57G A78U, the self-cleavage was 0.441.

As to U9C A83U, the self-cleavage was found to be 0.525.

Take C24U G55U: the self-cleavage came to 0.698.

Regarding C4U A77G, the self-cleavage turned out to be 0.578.

On to C18A G54U, for which the self-cleavage is 0.135.

For C21U U72A, the self-cleavage is 0.141.

With A16C G17U, the self-cleavage was found to be 0.332.

G31U G50A: the self-cleavage was 0.674.

For the variant U69A G80C, the self-cleavage turned out to be 0.38.

For the variant C75A A83C, the self-cleavage is 0.181.

As for G39A C58A, the self-cleavage is 0.475.

With U27A U37A, the self-cleavage was found to be 0.138.

G50C G54A: the self-cleavage is 0.369.

Take C15U C58A: the self-cleavage was 0.997.
